From patent US20120172293A1 (Takeda / Millennium, published 2012)
Starred links: 1 amine or outer side, 2 acyl side, 3 side chain; linkers in the order of their positions; H or OH if unused. Non-standard residues stand in square brackets, D forms with d. *: point of attachment. Asn(Me) = N-omega-methylasparagine, CNC(=O)C[C@H](N[*:1])C(=O)[*:2]; 4‑guanidinomethylbenzoyl = N=C(N)NCc1ccc(C(=O)*)cc1; Phe(4-NH2) = Nc1ccc(C[C@H](N)C(=O)O)cc1; Phe(4-F) = N[C@@H](Cc1ccc(F)cc1)C(=O)O; Cyclohexanecarbonyl = O=C(C1CCCCC1)*; Arg(Me) = CNC(=N)NCCC[C@H](N)C(=O)O; Ala(cPr) = N[C@@H](CC1CC1)C(=O)O; tBuAla = CC(C)(C)C[C@H](N)C(=O)O; 3Pal = N[C@@H](Cc1cccnc1)C(=O)O; 4Pal = N[C@@H](Cc1ccncc1)C(=O)O; Cha = N[C@@H](CC1CCCCC1)C(=O)O; Isobutyryl = CC(C)C(=O)*; Nle = CCCC[C@H](N)C(=O)O; Abu = CC[C@H](N)C(=O)O; Dap = NC[C@H](N)C(=O)O; Aib = CC(C)(N)C(=O)O; Bz = O=C(c1ccccc1)*

B1: Benzoyl-[Cha27,28,36, Aib31]-PYY(25-36) (peptide)
peptide: Bz-RH[Cha][Cha]NL[Aib]TRQR[Cha]-NH2
SMILES: CC(C)C[C@H](NC(=O)[C@H](CC(N)=O)NC(=O)[C@H](CC1CCCCC1)NC(=O)[C@H](CC1CCCCC1)NC(=O)[C@H](Cc1c[nH]cn1)NC(=O)[C@H](CCCNC(=N)N)NC(=O)c1ccccc1)C(=O)NC(C)(C)C(=O)N[C@H](C(=O)N[C@@H](CCCNC(=N)N)C(=O)N[C@@H](CCC(N)=O)C(=O)N[C@@H](CCCNC(=N)N)C(=O)N[C@@H](CC1CCCCC1)C(N)=O)[C@@H](C)O
B2: Benzoyl-[Cha27,36, Ile28, Dap31]-PYY(25-36) (peptide)
peptide: Bz-RH[Cha]INL[Dap]TRQR[Cha]-NH2
SMILES: CC[C@H](C)[C@H](NC(=O)[C@H](CC1CCCCC1)NC(=O)[C@H](Cc1c[nH]cn1)NC(=O)[C@H](CCCNC(=N)N)NC(=O)c1ccccc1)C(=O)N[C@@H](CC(N)=O)C(=O)N[C@@H](CC(C)C)C(=O)N[C@@H](CN)C(=O)N[C@H](C(=O)N[C@@H](CCCNC(=N)N)C(=O)N[C@@H](CCC(N)=O)C(=O)N[C@@H](CCCNC(=N)N)C(=O)N[C@@H](CC1CCCCC1)C(N)=O)[C@@H](C)O
B3: Benzoyl-[Cha27,36, Ile28, Arg(Me)31]-PYY(25-36) (peptide)
peptide: Bz-RH[Cha]INL[Arg(Me)]TRQR[Cha]-NH2
SMILES: CC[C@H](C)[C@H](NC(=O)[C@H](CC1CCCCC1)NC(=O)[C@H](Cc1c[nH]cn1)NC(=O)[C@H](CCCNC(=N)N)NC(=O)c1ccccc1)C(=O)N[C@@H](CC(N)=O)C(=O)N[C@@H](CC(C)C)C(=O)N[C@@H](CCCNC(=N)NC)C(=O)N[C@H](C(=O)N[C@@H](CCCNC(=N)N)C(=O)N[C@@H](CCC(N)=O)C(=O)N[C@@H](CCCNC(=N)N)C(=O)N[C@@H](CC1CCCCC1)C(N)=O)[C@@H](C)O
B4: Benzoyl-[Cha27,36, Ile28, Pya(4)31]-PYY(25-36) (peptide)
peptide: Bz-RH[Cha]INL[4Pal]TRQR[Cha]-NH2
SMILES: CC[C@H](C)[C@H](NC(=O)[C@H](CC1CCCCC1)NC(=O)[C@H](Cc1c[nH]cn1)NC(=O)[C@H](CCCNC(=N)N)NC(=O)c1ccccc1)C(=O)N[C@@H](CC(N)=O)C(=O)N[C@@H](CC(C)C)C(=O)N[C@@H](Cc1ccncc1)C(=O)N[C@H](C(=O)N[C@@H](CCCNC(=N)N)C(=O)N[C@@H](CCC(N)=O)C(=O)N[C@@H](CCCNC(=N)N)C(=O)N[C@@H](CC1CCCCC1)C(N)=O)[C@@H](C)O
B5: Benzoyl-[Cha27,36, Ile28, Phe(4NH2)31]-PYY(25-36) (peptide)
peptide: Bz-RH[Cha]INL[Phe(4-NH2)]TRQR[Cha]-NH2
SMILES: CC[C@H](C)[C@H](NC(=O)[C@H](CC1CCCCC1)NC(=O)[C@H](Cc1c[nH]cn1)NC(=O)[C@H](CCCNC(=N)N)NC(=O)c1ccccc1)C(=O)N[C@@H](CC(N)=O)C(=O)N[C@@H](CC(C)C)C(=O)N[C@@H](Cc1ccc(N)cc1)C(=O)N[C@H](C(=O)N[C@@H](CCCNC(=N)N)C(=O)N[C@@H](CCC(N)=O)C(=O)N[C@@H](CCCNC(=N)N)C(=O)N[C@@H](CC1CCCCC1)C(N)=O)[C@@H](C)O
B6: Benzoyl-[Cha27,36, Ile28,31, Phe(4NH2)30]-PYY(25-36) (peptide)
peptide: Bz-RH[Cha]IN[Phe(4-NH2)]ITRQR[Cha]-NH2
SMILES: CC[C@H](C)[C@H](NC(=O)[C@H](CC1CCCCC1)NC(=O)[C@H](Cc1c[nH]cn1)NC(=O)[C@H](CCCNC(=N)N)NC(=O)c1ccccc1)C(=O)N[C@@H](CC(N)=O)C(=O)N[C@@H](Cc1ccc(N)cc1)C(=O)N[C@H](C(=O)N[C@H](C(=O)N[C@@H](CCCNC(=N)N)C(=O)N[C@@H](CCC(N)=O)C(=O)N[C@@H](CCCNC(=N)N)C(=O)N[C@@H](CC1CCCCC1)C(N)=O)[C@@H](C)O)[C@@H](C)CC
B7: Cyclohexanecarbonyl-[Cha27,36, Ile28,31, Asn(Me)29]-PYY(25-36) (peptide)
peptide: Cyclohexanecarbonyl-RH[Cha]I[Asn(Me)]LITRQR[Cha]-NH2
SMILES: CC[C@H](C)[C@H](NC(=O)[C@H](CC1CCCCC1)NC(=O)[C@H](Cc1c[nH]cn1)NC(=O)[C@H](CCCNC(=N)N)NC(=O)C1CCCCC1)C(=O)N[C@@H](CC(=O)NC)C(=O)N[C@@H](CC(C)C)C(=O)N[C@H](C(=O)N[C@H](C(=O)N[C@@H](CCCNC(=N)N)C(=O)N[C@@H](CCC(N)=O)C(=O)N[C@@H](CCCNC(=N)N)C(=O)N[C@@H](CC1CCCCC1)C(N)=O)[C@@H](C)O)[C@@H](C)CC
B8: 4-Guanidinomethylbenzoyl-[Nle25, Cha27,28,31,36, Arg30]-PYY(25-36) (peptide)
peptide: {4‑guanidinomethylbenzoyl}-[Nle]H[Cha][Cha]NR[Cha]TRQR[Cha]-NH2
SMILES: CCCC[C@H](NC(=O)c1ccc(CNC(=N)N)cc1)C(=O)N[C@@H](Cc1c[nH]cn1)C(=O)N[C@@H](CC1CCCCC1)C(=O)N[C@@H](CC1CCCCC1)C(=O)N[C@@H](CC(N)=O)C(=O)N[C@@H](CCCNC(=N)N)C(=O)N[C@@H](CC1CCCCC1)C(=O)N[C@H](C(=O)N[C@@H](CCCNC(=N)N)C(=O)N[C@@H](CCC(N)=O)C(=O)N[C@@H](CCCNC(=N)N)C(=O)N[C@@H](CC1CCCCC1)C(N)=O)[C@@H](C)O
B9: Cyclohexanecarbonyl-[Nle26, Cha27,28,36, Aib31]-PYY(25-36) (peptide)
peptide: Cyclohexanecarbonyl-R[Nle][Cha][Cha]NL[Aib]TRQR[Cha]-NH2
SMILES: CCCC[C@H](NC(=O)[C@H](CCCNC(=N)N)NC(=O)C1CCCCC1)C(=O)N[C@@H](CC1CCCCC1)C(=O)N[C@@H](CC1CCCCC1)C(=O)N[C@@H](CC(N)=O)C(=O)N[C@@H](CC(C)C)C(=O)NC(C)(C)C(=O)N[C@H](C(=O)N[C@@H](CCCNC(=N)N)C(=O)N[C@@H](CCC(N)=O)C(=O)N[C@@H](CCCNC(=N)N)C(=O)N[C@@H](CC1CCCCC1)C(N)=O)[C@@H](C)O
B10: Cyclohexanecarbonyl-[Cha27,36, Ala(cPr)28, Aib31]-PYY(25-36) (peptide)
peptide: Cyclohexanecarbonyl-RH[Cha][Ala(cPr)]NL[Aib]TRQR[Cha]-NH2
SMILES: CC(C)C[C@H](NC(=O)[C@H](CC(N)=O)NC(=O)[C@H](CC1CC1)NC(=O)[C@H](CC1CCCCC1)NC(=O)[C@H](Cc1c[nH]cn1)NC(=O)[C@H](CCCNC(=N)N)NC(=O)C1CCCCC1)C(=O)NC(C)(C)C(=O)N[C@H](C(=O)N[C@@H](CCCNC(=N)N)C(=O)N[C@@H](CCC(N)=O)C(=O)N[C@@H](CCCNC(=N)N)C(=O)N[C@@H](CC1CCCCC1)C(N)=O)[C@@H](C)O
B11: Isobutanoyl-[Abu26, Cha27,36, Phe(4F)28, Aib31]-PYY(25-36) (peptide)
peptide: Isobutyryl-R[Abu][Cha][Phe(4-F)]NL[Aib]TRQR[Cha]-NH2
SMILES: CC[C@H](NC(=O)[C@H](CCCNC(=N)N)NC(=O)C(C)C)C(=O)N[C@@H](CC1CCCCC1)C(=O)N[C@@H](Cc1ccc(F)cc1)C(=O)N[C@@H](CC(N)=O)C(=O)N[C@@H](CC(C)C)C(=O)NC(C)(C)C(=O)N[C@H](C(=O)N[C@@H](CCCNC(=N)N)C(=O)N[C@@H](CCC(N)=O)C(=O)N[C@@H](CCCNC(=N)N)C(=O)N[C@@H](CC1CCCCC1)C(N)=O)[C@@H](C)O
B12: Isobutanoyl-[Abu26, Cha27,28,36, Ala(cPr)30, Aib31]-PYY(25-36) (peptide)
peptide: Isobutyryl-R[Abu][Cha][Cha]N[Ala(cPr)][Aib]TRQR[Cha]-NH2
SMILES: CC[C@H](NC(=O)[C@H](CCCNC(=N)N)NC(=O)C(C)C)C(=O)N[C@@H](CC1CCCCC1)C(=O)N[C@@H](CC1CCCCC1)C(=O)N[C@@H](CC(N)=O)C(=O)N[C@@H](CC1CC1)C(=O)NC(C)(C)C(=O)N[C@H](C(=O)N[C@@H](CCCNC(=N)N)C(=O)N[C@@H](CCC(N)=O)C(=O)N[C@@H](CCCNC(=N)N)C(=O)N[C@@H](CC1CCCCC1)C(N)=O)[C@@H](C)O
B13: Isobutanoyl-[Abu26, Cha27,28,36, Leu(Me)30, Aib31]-PYY(25-36) (peptide)
peptide: Isobutyryl-R[Abu][Cha][Cha]N[tBuAla][Aib]TRQR[Cha]-NH2
SMILES: CC[C@H](NC(=O)[C@H](CCCNC(=N)N)NC(=O)C(C)C)C(=O)N[C@@H](CC1CCCCC1)C(=O)N[C@@H](CC1CCCCC1)C(=O)N[C@@H](CC(N)=O)C(=O)N[C@@H](CC(C)(C)C)C(=O)NC(C)(C)C(=O)N[C@H](C(=O)N[C@@H](CCCNC(=N)N)C(=O)N[C@@H](CCC(N)=O)C(=O)N[C@@H](CCCNC(=N)N)C(=O)N[C@@H](CC1CCCCC1)C(N)=O)[C@@H](C)O
B14: Isobutanoyl-[Abu26, Cha27,28,36, Pya(3)31]-PYY(25-36) (peptide)
peptide: Isobutyryl-R[Abu][Cha][Cha]NL[3Pal]TRQR[Cha]-NH2
SMILES: CC[C@H](NC(=O)[C@H](CCCNC(=N)N)NC(=O)C(C)C)C(=O)N[C@@H](CC1CCCCC1)C(=O)N[C@@H](CC1CCCCC1)C(=O)N[C@@H](CC(N)=O)C(=O)N[C@@H](CC(C)C)C(=O)N[C@@H](Cc1cccnc1)C(=O)N[C@H](C(=O)N[C@@H](CCCNC(=N)N)C(=O)N[C@@H](CCC(N)=O)C(=O)N[C@@H](CCCNC(=N)N)C(=O)N[C@@H](CC1CCCCC1)C(N)=O)[C@@H](C)O
B15: Isobutanoyl-[Abu26, Cha27,36, Pya(4)28, Aib31]-PYY(25-36) (peptide)
peptide: Isobutyryl-R[Abu][Cha][4Pal]NL[Aib]TRQR[Cha]-NH2
SMILES: CC[C@H](NC(=O)[C@H](CCCNC(=N)N)NC(=O)C(C)C)C(=O)N[C@@H](CC1CCCCC1)C(=O)N[C@@H](Cc1ccncc1)C(=O)N[C@@H](CC(N)=O)C(=O)N[C@@H](CC(C)C)C(=O)NC(C)(C)C(=O)N[C@H](C(=O)N[C@@H](CCCNC(=N)N)C(=O)N[C@@H](CCC(N)=O)C(=O)N[C@@H](CCCNC(=N)N)C(=O)N[C@@H](CC1CCCCC1)C(N)=O)[C@@H](C)O

What follows are binders tested against human Y2 receptor (human) (UniProt P49146) (assay: RBA: [125I]-PYY displacement, hY2R/CHO membranes).
human Y2 receptor (human), sequence (P49146 whole entry): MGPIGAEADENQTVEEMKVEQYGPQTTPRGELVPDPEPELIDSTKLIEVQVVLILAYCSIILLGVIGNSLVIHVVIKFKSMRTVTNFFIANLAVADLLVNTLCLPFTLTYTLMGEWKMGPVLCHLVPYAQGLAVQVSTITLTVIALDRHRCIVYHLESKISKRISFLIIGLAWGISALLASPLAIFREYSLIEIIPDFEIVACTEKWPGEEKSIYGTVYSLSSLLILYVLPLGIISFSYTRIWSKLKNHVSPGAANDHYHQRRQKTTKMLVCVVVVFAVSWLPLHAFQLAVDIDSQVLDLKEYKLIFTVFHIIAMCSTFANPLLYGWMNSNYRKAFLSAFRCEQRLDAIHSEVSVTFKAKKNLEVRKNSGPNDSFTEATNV

Binder	IC50 Ratio (vs PYY(3-36))
B1	28
B2	37
B3	18
B4	7.6
B5	5
B6	12
B7	76
B8	7.2
B9	50
B10	15
B11	23
B12	17
B13	51
B14	25
B15	26

What follows are binders tested against human Y2 receptor (human) (UniProt P49146) (assay: cell-based or functional assay).

Binder	GBA EC50 Ratio (vs PYY(3-36)), [35S]GTPγS
B1	18
B2	28
B3	15
B4	8.5
B5	5.4
B6	6.6
B7	37
B8	4.5
B9	33
B10	23
B11	20
B12	12
B13	26
B14	19
B15	22
